Key:
Experiment in all cases: cell-based or functional assay
human Kv 1.3 [1] = target: T1, human Kv 1.3 (human, UniProt P22001 1-575)
human Nav1.7 [2] = target: T2, human Nav1.7 (human, UniProt Q15858 1-1988)
human Kv 1.3 [3] = target: T1, human Kv 1.3; remark: listed apart in the source
human Nav1.7 [4] = target: T2, human Nav1.7; remark: listed apart in the source

T1 sequence (P22001 whole entry): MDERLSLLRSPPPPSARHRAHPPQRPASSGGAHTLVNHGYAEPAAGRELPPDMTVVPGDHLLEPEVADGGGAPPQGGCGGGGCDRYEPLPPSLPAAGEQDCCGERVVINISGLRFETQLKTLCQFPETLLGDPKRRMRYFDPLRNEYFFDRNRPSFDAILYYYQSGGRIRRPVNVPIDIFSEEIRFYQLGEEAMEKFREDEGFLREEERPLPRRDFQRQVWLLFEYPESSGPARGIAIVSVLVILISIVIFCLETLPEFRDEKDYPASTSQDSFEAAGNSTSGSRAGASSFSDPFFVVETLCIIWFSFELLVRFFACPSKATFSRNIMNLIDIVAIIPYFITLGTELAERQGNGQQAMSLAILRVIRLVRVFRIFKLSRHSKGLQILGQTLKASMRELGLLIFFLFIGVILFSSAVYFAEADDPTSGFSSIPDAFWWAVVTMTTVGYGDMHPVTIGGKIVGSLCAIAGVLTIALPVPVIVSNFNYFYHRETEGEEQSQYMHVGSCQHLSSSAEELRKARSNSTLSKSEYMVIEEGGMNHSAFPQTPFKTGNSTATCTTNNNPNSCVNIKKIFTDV
T2 sequence (Q15858 whole entry): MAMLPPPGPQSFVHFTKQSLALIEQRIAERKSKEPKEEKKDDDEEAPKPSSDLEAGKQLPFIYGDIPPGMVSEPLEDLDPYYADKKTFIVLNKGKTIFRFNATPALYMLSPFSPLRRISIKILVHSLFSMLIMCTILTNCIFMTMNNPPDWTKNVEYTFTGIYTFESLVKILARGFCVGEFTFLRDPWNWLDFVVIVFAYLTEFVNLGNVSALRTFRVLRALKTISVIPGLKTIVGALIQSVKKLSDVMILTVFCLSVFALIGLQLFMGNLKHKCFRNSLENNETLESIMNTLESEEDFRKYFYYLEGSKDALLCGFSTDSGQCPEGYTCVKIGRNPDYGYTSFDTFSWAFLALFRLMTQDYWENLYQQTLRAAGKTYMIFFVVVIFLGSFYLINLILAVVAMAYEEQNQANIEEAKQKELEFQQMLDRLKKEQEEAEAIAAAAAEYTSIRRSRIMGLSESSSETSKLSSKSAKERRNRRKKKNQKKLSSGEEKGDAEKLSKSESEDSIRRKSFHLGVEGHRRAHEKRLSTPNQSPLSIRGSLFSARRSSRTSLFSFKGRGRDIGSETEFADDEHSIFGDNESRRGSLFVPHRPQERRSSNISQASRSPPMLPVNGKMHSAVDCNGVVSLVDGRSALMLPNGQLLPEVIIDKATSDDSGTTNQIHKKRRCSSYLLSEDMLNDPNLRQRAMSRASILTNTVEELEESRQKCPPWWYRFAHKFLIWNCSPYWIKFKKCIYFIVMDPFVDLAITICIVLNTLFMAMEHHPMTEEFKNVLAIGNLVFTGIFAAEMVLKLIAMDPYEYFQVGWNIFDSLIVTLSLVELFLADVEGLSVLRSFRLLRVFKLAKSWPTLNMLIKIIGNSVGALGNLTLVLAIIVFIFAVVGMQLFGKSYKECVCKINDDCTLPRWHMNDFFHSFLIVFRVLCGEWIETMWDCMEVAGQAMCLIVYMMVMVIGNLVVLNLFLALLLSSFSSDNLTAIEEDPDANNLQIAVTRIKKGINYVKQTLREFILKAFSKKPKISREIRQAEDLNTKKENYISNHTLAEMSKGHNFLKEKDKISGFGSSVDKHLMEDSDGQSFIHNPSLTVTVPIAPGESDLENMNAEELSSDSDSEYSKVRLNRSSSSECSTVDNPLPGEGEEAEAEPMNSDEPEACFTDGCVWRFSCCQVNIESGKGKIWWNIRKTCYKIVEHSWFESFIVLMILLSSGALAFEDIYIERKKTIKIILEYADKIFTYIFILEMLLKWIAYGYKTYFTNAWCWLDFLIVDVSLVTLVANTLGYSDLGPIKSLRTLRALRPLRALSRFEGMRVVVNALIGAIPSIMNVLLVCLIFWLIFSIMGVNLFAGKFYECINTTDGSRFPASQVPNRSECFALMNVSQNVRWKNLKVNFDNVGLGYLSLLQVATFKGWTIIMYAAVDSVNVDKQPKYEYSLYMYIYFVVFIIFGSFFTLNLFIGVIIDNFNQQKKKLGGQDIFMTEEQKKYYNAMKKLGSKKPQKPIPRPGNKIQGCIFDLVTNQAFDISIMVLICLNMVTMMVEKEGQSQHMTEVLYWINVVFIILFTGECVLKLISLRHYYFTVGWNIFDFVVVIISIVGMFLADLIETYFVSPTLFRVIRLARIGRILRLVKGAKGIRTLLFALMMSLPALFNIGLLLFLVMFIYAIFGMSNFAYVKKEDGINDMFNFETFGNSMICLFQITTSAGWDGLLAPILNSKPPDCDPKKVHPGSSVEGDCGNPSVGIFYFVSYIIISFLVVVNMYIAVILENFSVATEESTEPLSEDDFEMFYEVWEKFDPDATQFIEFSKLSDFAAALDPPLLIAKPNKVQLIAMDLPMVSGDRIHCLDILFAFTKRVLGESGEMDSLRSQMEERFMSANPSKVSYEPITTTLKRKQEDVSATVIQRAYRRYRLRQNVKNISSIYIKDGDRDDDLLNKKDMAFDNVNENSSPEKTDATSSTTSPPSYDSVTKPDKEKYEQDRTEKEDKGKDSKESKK

B1: KB_A07 Shk (antibody, V domains shown)
VH: EVQLVESGGGLVRPGGSLRLSCAASGFTFSSYAMSWVRQAPGKGLEWVSAISGSGGSTYYADSVKGRFTISRDNTKNSLYLQMTSLRADDTAFYYCVKDFGPGYGTGWFDYWGPGTLVTVSS
VL: NWYQQKPGKAPKLLIYAAGVRSCIDTIPKSRCTAFQCKHSMKYRLSFCRKTCGTCSRSGVPSRFSGSGSGTDFTLTISSLQPEDFATYYCQQGASPPYTFGQGTKVEIKR
IC50 of inhibition of huKv1.3 currents, QPatch whole-cell patch clamp, CHO cells (human Kv 1.3 [1]): 40 nM

B2: KB_A12_ProTx-III 2M 2Gly (antibody, V domains shown)
VH: B1 VH
VL: VNWYQQLPGKAPKLLIYAAGRGCLKFGWKCNPRNDKCCSGLKCGSNHNWCKWHIGGANSGVSDRFSAAKSGTSASLAINGLRSEDEADYYCAAWDDSLNGYVFGTGTKLTVLG
IC50 of inhibition of Nav1.7 currents, QPatch, CHO cells (human Nav1.7 [2]): 1400 nM

B3: KB_A07 (scFv, V domains shown)
VH: B1 VH
VL: YLNWYQQKPGKAPKLLIYAAGVCPRILMRCKQDSDCLAGCVCGPNGFCGSRSGVPSRFSGSGSGTDFTLTISSLQPEDFATYYCQQGASPPYTFGQGTKVEIKR
IC50 of inhibition of huKv1.3 currents (extrapolated) (human Kv 1.3 [3]): > 10000 nM

B4: KB_A12_ProTx-III 2M Gly (antibody, V domains shown)
VH: B1 VH
VL: VNWYQQLPGKAPKLLIYAAGRGCLKFGWKCNPRNDKCCSGLKCGSNHNWCKWHIGANSGVSDRFSAAKSGTSASLAINGLRSEDEADYYCAAWDDSLNGYVFGTGTKLTVLG
IC50 of inhibition of Nav1.7 currents, QPatch, CHO cells (human Nav1.7 [2]): 1500 nM

B5: KB_A07 MoKa-1 (antibody, V domains shown)
VH: B1 VH
VL: DIQMTQSPSSLSASVGDRVTITCRASQSISSYLNWYQQKPGKAPKLLIYAAGVINVKCSLPQQCIKPCKDAGMRFGKCMNKKCRCYSSRSGVPSRFSGSGSGTDFTLTISSLQPEDFATYYCQQGASPPYTFGQGTKVEIKR
IC50 of inhibition of huKv1.3 currents (extrapolated) (human Kv 1.3 [3]): > 10000 nM

B6: KB_A12 (scFv, V domains shown)
VH: B1 VH
VL: AVNWYQQLPGKAPKLLIYAAGRCPRILMRCKQDSDCLAGCVCGPNGFCGANSGVSDRFSAAKSGTSASLAINGLRSEDEADYYCAAWDDSLNGYVFGTGTKLTVLG
IC50 of inhibition of Nav1.7 currents (extrapolated; IgG isotype control) (human Nav1.7 [4]): > 100000 nM
IC50 of inhibition of huKv1.3 currents (extrapolated) (human Kv 1.3 [3]): > 10000 nM

B7: KB_A12 Shk (antibody, V domains shown)
VH: B1 VH
VL: NWYQQLPGKAPKLLIYAAGRRSCIDTIPKSRCTAFQCKHSMKYRLSFCRKTCGTCANSGVSDRFSAAKSGTSASLAINGLRSEDEADYYCAAWDDSLNGYVFGTGTKLTVLG
IC50 of inhibition of huKv1.3 currents, QPatch whole-cell patch clamp, CHO cells (human Kv 1.3 [1]): 20 nM

B8: KB_A07 Kaliotoxin (antibody, V domains shown)
VH: B1 VH
VL: DIQMTQSPSSLSASVGDRVTITCRASQSISSYLNWYQQKPGKAPKLLIYAAGVGVEINVKCSGSPQCLKPCKDAGMRFGKCMNRKCHCTPKSRSGVPSRFSGSGSGTDFTLTISSLQPEDFATYYCQQGASPPYTFGQGTKVEIKR
IC50 of inhibition of huKv1.3 currents, QPatch whole-cell patch clamp, CHO cells (human Kv 1.3 [1]): 900 nM

B9: KB_A12 Kaliotoxin (antibody, V domains shown)
VH: B1 VH
VL: QSVLTQPPSVSEAPRQRVTITCSGSSSNIGNNAVNWYQQLPGKAPKLLIYAAGRGVEINVKCSGSPQCLKPCKDAGMRFGKCMNRKCHCTPKANSGVSDRFSAAKSGTSASLAINGLRSEDEADYYCAAWDDSLNGYVFGTGTKLTVLG
IC50 of inhibition of huKv1.3 currents (extrapolated) (human Kv 1.3 [3]): > 10000 nM

B10: KB_A12 MoKa-1 (antibody, V domains shown)
VH: B1 VH
VL: QSVLTQPPSVSEAPRQRVTITCSGSSSNIGNNAVNWYQQLPGKAPKLLIYAAGRINVKCSLPQQCIKPCKDAGMRFGKCMNKKCRCYSANSGVSDRFSAAKSGTSASLAINGLRSEDEADYYCAAWDDSLNGYVFGTGTKLTVLG
IC50 of inhibition of huKv1.3 currents (extrapolated) (human Kv 1.3 [3]): > 10000 nM

B11: KB_A07_ProTx-III 2M Gly (antibody, V domains shown)
VH: B1 VH
VL: […]
IC50 of inhibition of Nav1.7 currents, QPatch, CHO cells (human Nav1.7 [2]): 1100 nM

Source: patent US11932673 (IONTAS, dated 2024)
